Measurements from US20180208675A1 (Novo Nordisk, published 2018).

Assays:
[1] = target: T1, human TFPI alpha (full-length TFPIα) (human, UniProt P10646 29-304); experiment: cell-based or functional assay
[2] = target: endogenous TFPI of normal human plasma (human, UniProt P10646 29-304, limits assumed); experiment: cell-based or functional assay
[3] = target: T1, human TFPI alpha (full-length TFPIα); experiment: cell-based or functional assay; remark: listed apart in the source
[4] = target: T1, human TFPI alpha (full-length TFPIα); experiment: SPR (Biacore T200), Fab captured on Human Fab Binder, TFPIα in solution, 1:1 fit
Text: Binding interaction analysis was obtained by Surface Plasmon Resonance in a Biacore T200 instrument. Human Fab Binder (Human Fab Capture Kit, GE Healthcare) was immobilized to a series S CM4 sensor chip (GE Healthcare) in flow-cells 1-4 at 10000 response units (RU) using the amine coupling protocol available within the Biacore T-200 control software (GE Healthcare) and the reagents provided with the Amine Coupling Kit (GE Healthcare).The relevant Fab fragment or Fab-Fab conjugate was captured in flow-cell 2, 3 or 4 at a fixed concentration. Different concentrations of TFPI were tested by diluting TFPI in the running buffer (10 mM Hepes, pH 7.4, 300 mM NaCl, 5 mM CaCl₂, 0.05% Surfactant P20, 1 mg/ml BSA). Each sample was assayed using 300 seconds of contact time followed by 600 seconds of dissociation time at 50 μl/min flow rate. A buffer blank was also assayed. The sensor surface was regenerated with 10 mM Glycine pH 2.1 with two cycles each of 30 seconds at 50 μl/min flow rate.
Biacore T200 Evaluation software was used to analyse the data. Determination of binding constants (kₒₙ, koff, KD) was obtained assuming a 1:1 interaction of TFPI and the Fab variant or Fab-Fab conjugate of interest.

lag time (min), 200 nM mAb (2 x 100 nM), FVIII-neutralised plasma + 20 nM TFPIα [1] [min] | thrombin peak (nM), 200 nM mAb (2 x 100 nM), FVIII-neutralised plasma + 20 nM TFPIα [1] [nM] | ttPeak (min), 200 nM mAb (2 x 100 nM), FVIII-neutralised plasma + 20 nM TFPIα [1] [min] | thrombin peak (nM) at 6.25 nM, FVIII-neutralised plasma, endogenous TFPI [2] [nM] | thrombin peak (nM) at 12.5 nM, FVIII-neutralised plasma, endogenous TFPI [2] [nM] | thrombin peak (nM) at 25.0 nM, FVIII-neutralised plasma, endogenous TFPI [2] [nM] | thrombin peak (nM) at 50.0 nM, FVIII-neutralised plasma, endogenous TFPI [2] [nM] | thrombin peak (nM) at 100 nM, FVIII-neutralised plasma, endogenous TFPI [2] [nM] | thrombin peak (nM) at 6.25 nM, FVIII-neutralised plasma + 2 nM TFPIα [3] [nM] | thrombin peak (nM) at 12.5 nM, FVIII-neutralised plasma + 2 nM TFPIα [3] [nM] | thrombin peak (nM) at 25.0 nM, FVIII-neutralised plasma + 2 nM TFPIα [3] [nM] | thrombin peak (nM) at 50.0 nM, FVIII-neutralised plasma + 2 nM TFPIα [3] [nM] | thrombin peak (nM) at 100 nM, FVIII-neutralised plasma + 2 nM TFPIα [3] [nM] | Kd [4] [nM] | koff [4] [s⁻¹] | kon [4] [M⁻¹ s⁻¹] | Binder
0 | 0 | 0 |  |  |  |  |  |  |  |  |  |  |  |  |  | mAb 1F91 (antibody, V domains shown) VH: DVQLQESGPGLVKPSQSLSLTCTVSGYSITSDYAWNWIRQFPGNKLEWMGYISYSGSTSYNPSLKSRISITRDTSKNQFFLQLNSVTTEDTATYYCARWAYDGPWGQGTLVTVSA VL: QIVLSQSPALLSASPGEKVTMTCRASSSVSHMHWYQQKPGSSPKPWIYATSNLASGVPARFSGSGSGTSYSLTITRVEAEDAATYYCQQWSSNPFTFGSGTKLEIKR
 |  |  | 113 | 114 | 116 | 118 | 118 | 48.9 | 61.7 | 68.4 | 73.4 | 58.6 |  |  |  | mAb 2021 (antibody, human IgG4 S228P, kappa, V domains shown) VH: EVQLVESGGGLVKPGGSLRLSCAASGFTFSNYAMSWVRQTPEKRLEWVATISRSGSYSYFPDSVQGRFTISRDNAKNSLYLQMNSLRAEDTAVYYCARLGGYDEGDAMDSWGQGTTVTVSS VL: DIVMTQTPLSLSVTPGQPASISCKSSQSLLESDGKTYLNWYLQKPGQSPQLLIYLVSILDSGVPDRFSGSGSGTDFTLKISRVEAEDVGVYYCLQATHFPQTFGGGTKVEIKR
 |  |  | 35.9 | 45 | 60.2 | 73.9 | 74.1 | 5.9 | 10.6 | 14.3 | 18.9 | 20.3 | 4.4 | 0.00066 | 150000 | Fab 0094 (Fab fragment of mAb 2007) (Fab, V domains shown, KPI-2 specific) VH: EVQLVESGGGLVKPGGSLRLSCAASGFTFSNYAMSWVRQAPGKGLEWVSTISRSGSYSYYPDSVKGRFTISRDNAKNSLYLQMNSLRAEDTAVYYCARLGGYDEGDAMDSWGQGTTVTVSS VL: DIVMTQTPLSLSVTPGQPASISCKSSQSLLESDGKTYLNWYLQKPGQSPQLLIYLVSILDSGVPDRFSGSGSGTDFTLKISRVEAEDVGVYYCLQATHFPQTFGGGTKVEIKR
 |  |  | 74.2 | 81.3 | 84.9 | 85.4 | 84.7 | 13.3 | 19.4 | 22.4 | 25.1 | 24.6 | 0.78 | 0.003 | 3.9e+06 | Fab 0095 (Fab fragment of mAb 2014) (Fab, V domains shown, KPI-2 specific) VH: EVQLVESGGGLVKPGGSLRLSCAASGFTFSNYAMSWVRQAPGKGLEWVSTISRSGSYSYYADSVKGRFTISRDNAKNSLYLQMNSLRAEDTAVYYCARLGGYDEGDAMDSWGQGTTVTVSS VL: DIVMTQTPLSLSVTPGQPASISCKSSQSLLESDGKTYLNWLLQRPGESPKLLIYLVSILDSGVPDRFSGSGSGTDFTLKISRVEAEDVGVYYCLQATHFPQTFGGGTKVEIKR
 |  |  |  |  |  |  |  |  |  |  |  |  | 42 | 0.0021 | 49000 | Fab 0313 (Fab fragment of mAb 2000) (Fab, V domains shown, Fab of the initial grafted HzTFPI4F36; KPI-2 specific) VH: EVQLVESGGGLVKPGGSLRLSCAASGFTFSNYAMSWVRQAPGKGLEWVSTISRSGSYSYYADSVKGRFTISRDNAKNSLYLQMNSLRAEDTAVYYCARLGGYDEGDAMDSWGQGTTVTVSS VL: DIVMTQTPLSLSVTPGQPASISCKSSQSLLESDGKTYLNWYLQKPGQSPQLLIYLVSILDSGVPDRFSGSGSGTDFTLKISRVEAEDVGVYYCLQATHFPQTFGGGTKVEIKR
 |  |  | 96.8 | 98.1 | 102 | 101 | 87.7 | 38.4 | 64.2 | 69.8 | 67.7 | 48.1 | 0.06 | 0.0001 | 1.7e+06 | Fab 0088 (Fab fragment of mAb 2021) (Fab, V domains shown, free C-terminal cysteine; KPI-2 specific) VH: EVQLVESGGGLVKPGGSLRLSCAASGFTFSNYAMSWVRQTPEKRLEWVATISRSGSYSYFPDSVQGRFTISRDNAKNSLYLQMNSLRAEDTAVYYCARLGGYDEGDAMDSWGQGTTVTVSS VL: DIVMTQTPLSLSVTPGQPASISCKSSQSLLESDGKTYLNWYLQKPGQSPQLLIYLVSILDSGVPDRFSGSGSGTDFTLKISRVEAEDVGVYYCLQATHFPQTFGGGTKVEIKR
0 | 0 | 0 |  |  |  |  |  |  |  |  |  |  |  |  |  | mAb 2F35 (antibody, V domains shown) VH: EVQLQQSGAELVRPGALVKLSCKASGFNIKDYYIHWVKQRPEQGLEWIGWIDPENGNTIFDPKFQGRASITADTSSNTAYLQLSSLTSEDTAVYYCAGRWYAMDYWGQGTSVTVSS VL: not shown
0 | 0 | 0 |  |  |  |  |  |  |  |  |  |  |  |  |  | mAb 4F110 (antibody, human IgG4 S228P, kappa, V domains shown) VH: QVQLQQSGAELVKPGASVKLSCKASGYTFISYYMYWVKQRPGQGLEWIGEINPSNGDTNLNEKFKSKATLTVDKSSSTVYMQLSSLTSEDSAVYYCTRWDRFDGFVYWGQGTLVTVSA VL: ETTVTQSPASLSMAIGGKVTIRCIISTNIDDDINWYQQKPGEPPKLLISEGNTLRPGVPSRFSSSGYGTDFVFTIENMLSEDVADYYCLQSDDLPYTFGGGTKLEIKR
 |  |  |  |  |  |  |  |  |  |  |  |  | 0.11 | 0.00057 | 5e+06 | Fab 0089 (Fab fragment of mAb 4F110) (Fab, V domains shown, Chimeric mouse/human Fab; HC truncated after the hinge cysteine; KPI-3 specific) VH: QVQLQQSGAELVKPGASVKLSCKASGYTFISYYMYWVKQRPGQGLEWIGEINPSNGDTNLNEKFKSKATLTVDKSSSTVYMQLSSLTSEDSAVYYCTRWDRFDGFVYWGQGTLVTVSA VL: ETTVTQSPASLSMAIGGKVTIRCIISTNIDDDINWYQQKPGEPPKLLISEGNTLRPGVPSRFSSSGYGTDFVFTIENMLSEDVADYYCLQSDDLPYTFGGGTKLEIKR
5.8 | 20.9 | 14.6 |  |  |  |  |  |  |  |  |  |  |  |  |  | mAb 2F3 (antibody, V domains shown) VH: QVQLKQSGPGLVQPSQSLSITCTVSGFSLSSYGVHWVRQSPGKGLEWLGVIWRGGSTDFNAAFMSRVSFTKDNSKSQVFFKMNSLQADDTAIYYCAKNSHGNYVGYAMDYWGQGTSVTVSS VL: DIVMTQSQKFMSTTVGDKVSIPCKASENVGAAVAWYQQKPGQSPTLLIYSASNRYTGIPDRFTGSGSGTDFTLTIRTVQSEDLADYFCQQYTNYPTFGGGTKLEIKR
5.1 | 23.7 | 13.6 |  |  |  |  |  |  |  |  |  |  |  |  |  | mAb 2F22 (antibody, V domains shown) VH: QVQLKQSGPGLVQPSQSLSITCTVSGFSLTNYGVHWVRQSPGKGLEWLAVIWRGGSIDYNAAFMSRLSITKDNSKSQVFFKMNSLQADDTAIYYCAKNSHGNYVGYAMDYWGQGTSVTVSS VL: GIVMTQSQKFMSTTVGDRVSITCKASQSVGPAVAWYQQKPGQSPKLLIYSASNRYTGVPDRFTGSGSGADFTLTISNLHSEDLADYFCQQYTSYPTFGGGTKLEIKR
9 |  |  |  |  |  |  |  |  |  |  |  |  |  |  |  | mAb 2F45 (antibody, V domains shown) VH: QVQLKQSGPGLVQPSQSLSISCTVSGFSLTGYGVHWIRQSPGKGLEWLGVIWRGGSIDYNAAFMSRLSITKDNSKSQVFFKMNSLQADDTAIYYCAKNSHGNYVGYAMDYWGQGTSVTVSS VL: DIVMTQSQKFMSTTVGDRVSITCKASQNVGTAVAWYQQKPGQSPELLIYSASNRYTRVPDRFTGSGSGTDFTLTISNMQSEDLADYFCQQYTSYPTFGGGTKLEIKR
